Test results reported in patent US20200109196A1 (MOGAM INSTITUTE FOR BIOMEDICAL RESEARCH, published 2020).
Substitutions are numbered along the chain they refer to.

Tests used:
[1] = biological target: T1, recombinant human CEACAM-1/CD66a protein (R&D systems; Cat. No. 2244-CM) (human, UniProt P13688 35-428); experiment: Octet QKe biolayer interferometry, anti-His (HIS1K) biosensors, antibody 6.25-400 nM
T1 construct: Bought protein; captured on anti-His (His1K) biosensors in the Octet assay, so it carries a His tag; also called HCCM1; recombinant CEACAM-1/CD66a protein
T1 sequence (looked up): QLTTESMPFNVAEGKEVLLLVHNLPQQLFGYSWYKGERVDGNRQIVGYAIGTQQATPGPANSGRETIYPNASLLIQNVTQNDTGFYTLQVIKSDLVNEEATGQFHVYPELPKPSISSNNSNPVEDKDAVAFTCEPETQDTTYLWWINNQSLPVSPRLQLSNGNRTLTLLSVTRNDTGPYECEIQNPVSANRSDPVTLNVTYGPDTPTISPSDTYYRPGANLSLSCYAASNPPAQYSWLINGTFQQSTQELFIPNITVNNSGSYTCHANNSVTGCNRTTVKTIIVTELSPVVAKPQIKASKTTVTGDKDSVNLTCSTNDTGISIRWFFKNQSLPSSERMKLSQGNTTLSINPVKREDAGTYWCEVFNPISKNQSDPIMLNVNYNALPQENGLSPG
Protocol: The last well in each row was with a sample at the antibody concentration of 0 nM. Recombinant human CEACAM1 protein (R&D Systems; Cat. No. 2244-CM) was diluted to obtain a concentration of […], and dispensed into each well of another column at 200 μl/well.
As for the washing buffer, neutralization buffer and baseline buffer, Reagent/Kinetics buffer (10×) (Fortebio; Cat. No. 18-1092) were 1:10 diluted and dispensed into each well of a column in a row at 200 μl/well, and the regeneration buffer was dispensed into each well at 200 μl/well. Greiner 96-well plate was separately prepared, Reagent/Kinetics buffer (1×) was dispensed into each well of the number of biosensors to be used in a row at 200 μl/well, and Biosensors/Anti-His (His1K) (Fortebio; Cat. No. 18-5120) cassette was installed.

mCCM1 = biological target: T2, mCCM1; experiment: ELISA on coated antigen (0.25 µg/ml), HRP anti-human IgG Fab, OD450
T2 construct: also called mouse CCM1; mouse CEACAM1/CD66a protein (Sino Biological); not shown: the vendor's polyhistidine tag
T2 chain: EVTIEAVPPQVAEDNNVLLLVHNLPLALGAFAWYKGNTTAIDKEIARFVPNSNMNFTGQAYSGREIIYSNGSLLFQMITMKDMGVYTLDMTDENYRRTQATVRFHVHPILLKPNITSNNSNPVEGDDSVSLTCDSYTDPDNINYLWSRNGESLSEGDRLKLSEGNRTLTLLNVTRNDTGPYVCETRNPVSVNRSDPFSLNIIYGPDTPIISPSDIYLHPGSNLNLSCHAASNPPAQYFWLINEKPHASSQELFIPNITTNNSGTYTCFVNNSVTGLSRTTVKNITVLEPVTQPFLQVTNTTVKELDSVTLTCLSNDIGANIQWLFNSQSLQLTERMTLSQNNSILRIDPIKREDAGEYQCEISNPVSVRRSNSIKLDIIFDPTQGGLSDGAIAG
From the text: All of the recombinant human CEACAM-1/CD66a protein (R&D systems; Cat. No. 2244-CM, HCCM1), recombinant human CEACAM-5/CD66e protein (R&D systems; Cat. No. 4128-CM, HCCM5), recombinant human CEACAM-6/CD66c protein (R&D systems; Cat. No. 3934-CM, HCCM6), recombinant human CEACAM-3/CD66d protein (Sino Biological; Cat. No. 11933-H08H, HCCM3), recombinant mouse PD-1 Fc chimeric protein (R&D systems; Cat. No. 1021-PD, mPD-1-Fc), recombinant CEACAM1-Fc (IgG4) protein (Mogam, in-house production, HCCM1-Fc), recombinant human CEACAM-1/CD66a protein Bulk (R&D systems; Cat. No. 2244-CM, HCCM1 (bulk)) and mouse CEACAM1/CD66a protein (Sino Biological; Cat. No. 50571-M08H, mouse CCM1) (2.5 μg each) were dissolved in 10 ml of PBS, respectively and dispensed into a 96-well plate (Nunc; Cat. No. 467679) at 100 μl/well, which was incubated overnight at 4° C. Thereafter, each well was treated with 300 μl of 1% (v/v) bovine serum albumin, which was incubated at 37° C. for 1 hour.
(§1) The diluted antibodies were dispensed into each well coated with each protein at 100 μl/well, which was incubated at 37° C. for 1 hour. Then, each well was washed 3 times with a washing buffer prepared by diluting 10 μl of Tween 20 (Sigma-Aldrich; Cat. No. P9146) in 990 μl of PBS. Thereafter, 2 μl of HRP-conjugated human anti-IgG-Fab antibody (anti-human IgG Fab; Sigma; Cat. No. A0293) was diluted in 10 ml of PBS, added to the wells at 100 μl/well, and incubated for 1 hour.
(§2) After completion of the reaction, the wells were washed three times with the washing buffer, and 100 μl of TMB solution was added to each well to induce color development. Then, 100 μl of 2 M H₂SO₄ was added to each well to stop the reaction, and the absorbance was measured at a wavelength of 450 nm.

BSA = biological target: T3, BSA (bovine, UniProt P02769); experiment: ELISA on coated antigen (0.25 µg/ml), HRP anti-human IgG Fc, OD450
T3 construct: blank antigen; also called BSA protein; bovine serum albumin
From the text: (§3) All of the recombinant human CEACAM-1/CD66a protein (R&D systems; Cat No. 2244-CM, HCCM1), recombinant human CEACAM-5/CD66e protein (R&D systems; Cat. No. 4128-CM, HCCM5), recombinant human CEACAM-6/CD66c protein (R&D systems; Cat. No. 3934-CM, HCCM6), recombinant human CEACAM-3/CD66d protein (Sino Biological; Cat. No. 11933-H08H, HCCM3), human B7-H5/Gi24/VISTA protein (Sino Biological; Cat. No. 13482-H08H, HVISTA), recombinant human CEACAM-1/CD66a protein Bulk (R&D systems; Cat. No. 2244-CM, HCCM1 (bulk)), recombinant human CEACAM1-N domain-Kappa protein (Mogam, in-house production, HCCM1-N domain-kappa), and BSA protein (2.5 μg each) were dissolved in 10 ml of PBS, respectively, and dispensed into a 96-well plate at 100 μl/well, which was incubated at 4° C. overnight. Thereafter, each well was treated with 300 μl of 1% (v/v) bovine serum albumin, and incubated at 37° C. for 1 hour.
as §1, with “and” for “which was”, “anti-IgG-Fc” for “anti-IgG-Fab”, “Fc, Sigma” for “Fab; Sigma;”, “A0170)” for “A0293)”
as §2

HVISTA = biological target: T4, HVISTA; experiment: as above
T4 construct: unrelated control antigen; also called human B7-H5/Gi24/VISTA protein (Sino Biological; Cat. No. 13482-H08H); not shown: the vendor's polyhistidine tag
From the text: as §3
as §1, with “and” for “which was”, “anti-IgG-Fc” for “anti-IgG-Fab”, “Fc, Sigma” for “Fab; Sigma;”, “A0170)” for “A0293)”
as §2

T4 sequence (chain, as listed by the source limits assumed): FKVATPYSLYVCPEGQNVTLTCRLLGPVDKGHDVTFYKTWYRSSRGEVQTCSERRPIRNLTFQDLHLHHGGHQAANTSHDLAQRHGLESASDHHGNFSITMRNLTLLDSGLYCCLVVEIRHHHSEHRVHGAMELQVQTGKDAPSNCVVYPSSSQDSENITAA
T3 sequence (P02769 25-607 limits assumed): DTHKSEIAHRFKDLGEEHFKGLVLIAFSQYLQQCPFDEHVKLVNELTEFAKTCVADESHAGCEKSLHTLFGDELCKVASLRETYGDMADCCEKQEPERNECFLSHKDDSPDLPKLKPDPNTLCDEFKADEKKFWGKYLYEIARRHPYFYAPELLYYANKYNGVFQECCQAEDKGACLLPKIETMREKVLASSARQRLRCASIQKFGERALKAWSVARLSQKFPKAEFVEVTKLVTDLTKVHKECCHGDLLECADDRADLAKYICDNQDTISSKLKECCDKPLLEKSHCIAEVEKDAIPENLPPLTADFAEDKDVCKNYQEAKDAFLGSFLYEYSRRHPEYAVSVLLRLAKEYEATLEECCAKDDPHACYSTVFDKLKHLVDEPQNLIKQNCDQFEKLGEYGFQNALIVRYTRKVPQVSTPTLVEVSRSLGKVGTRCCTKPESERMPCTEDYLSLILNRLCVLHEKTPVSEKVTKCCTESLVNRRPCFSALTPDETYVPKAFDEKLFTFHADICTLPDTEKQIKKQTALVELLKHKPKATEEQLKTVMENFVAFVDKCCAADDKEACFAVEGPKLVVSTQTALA

B1: 4R9_H4-n20HC+4R26LC (antibody, human IgG4 S228P, lambda, V domains shown)
VH: EVQLLESGGGLVQPGGSLRLSCAASGFNFSNYAMSWVRQAPGKGLEWVSVISHGGGSIYYADSVKGRLTISRDNSKNTLYLQMNSLRAEDTAVYYCARDPTKGYAPTFDYWGQGTLVTVSS
VL: QSVLTQPPSASGTPGQRVTISCSGSSSNIGNNYVSWYQQLPGTAPKLLIYADSKRLSGVPDRFSGSKSGTSASLAISGLRSEDEADYYCGAWDGRLNGYVFGGGTKLTVLG
Kd [1]: 25.7 nM
koff [1]: 0.000321 s⁻¹
kon [1]: 19000 M⁻¹ s⁻¹

B2: C16 (antibody, human IgG4 S228P, lambda, V domains shown)
VH: EVQLLESGGGLVQPGGSLRLSCAASGFTFSNYSMSWVRQAPGKGLEWVSAISSDGGSKYYADSVKGRFTISRDNSKNTLYLQMNSLRAEDTAVYYCARDPRKHVDRYFDYWGQGTLVTVSS
VL: B1 VL with N31S, Y33T, S53N, K54N, L56P, A91T, G94Y, R95S, N97S, F101L
binding result (mCCM1): no binding (tested: 3 µg/ml (single concentration))
binding result (BSA): no binding (tested: 3 µg/ml (single concentration))
binding result (HVISTA): no binding (tested: 3 µg/ml (single concentration))
